Test results: PMC2779157

Experiments:
[1] = target: IRF3 (UniProt Q14653); test: Superdex-200 gel filtration after cell-free reaction; conditions: reference: reaction without virus-activated mitochondria; sites S385,S386,S396
[2] = target: IRF3, activated in vitro by virus-activated mitochondria (P5) and cytosolic extract (UniProt Q14653); test: SEC

Chain of IRF3 (Q14653 whole entry, change not shown): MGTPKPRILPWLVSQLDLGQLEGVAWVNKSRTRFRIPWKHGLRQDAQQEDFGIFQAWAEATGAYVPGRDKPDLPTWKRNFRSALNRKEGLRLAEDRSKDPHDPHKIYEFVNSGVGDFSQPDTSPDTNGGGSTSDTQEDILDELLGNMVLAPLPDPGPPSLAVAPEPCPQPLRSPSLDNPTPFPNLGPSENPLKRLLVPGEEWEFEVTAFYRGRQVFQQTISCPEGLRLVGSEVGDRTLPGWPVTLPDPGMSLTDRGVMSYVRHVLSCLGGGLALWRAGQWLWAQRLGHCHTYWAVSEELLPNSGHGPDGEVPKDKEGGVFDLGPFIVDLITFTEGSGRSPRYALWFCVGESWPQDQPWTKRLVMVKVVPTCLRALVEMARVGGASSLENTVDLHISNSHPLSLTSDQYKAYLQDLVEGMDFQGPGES

Substance | other: apparent molecular mass [1] | stoichiometry N [2]
IRF3 (from UniProt Q14653) reaction with virus-activated mitochondria (P5) | gained; reference 150 | –
IRF3, activated in vitro by virus-activated mitochondria (P5) and cytosolic extract (from UniProt Q14653 1-427) (natural protein) | – | 2
